From publication PMC4383033, “Architecture of the ring formed by the tubulin homologue FtsZ in bacterial cell division” (eLife, 2014) come the findings set out here.

B1: Thermotoga maritima FtsA (natural protein, UniProt Q9WZU0 1-419, looked up)
chain: MIDLSKTVFYTSIDIGSRYIKGLVLGKRDQEWEALAFSSVKSRGLDEGEIKDAIAFKESVNTLLKELEEQLQKSLRSDFVISFSSVSFEREDTVIERDFGEEKRSITLDILSEMQSEALEKLKENGKTPLHIFSKRYLLDDERIVFNPLDMKASKIAIEYTSIVVPLKVYEMFYNFLQDTVKSPFQLKSSLVSTAEGVLTTPEKDRGVVVVNLGYNFTGLIAYKNGVPIKISYVPVGMKHVIKDVSAVLDTSFEESERLIITHGNAVYNDLKEEEIQYRGLDGNTIKTTTAKKLSVIIHARLREIMSKSKKFFREVEAKIVEEGEIGIPGGVVLTGGGAKIPRINELATEVFKSPVRTGCYANSDRPSIINADEVANDPSFAAAFGNVFAVSENPYEETPVKSENPLKKIFRLFKELME
notes: FtsA of Thermotoga maritima; 'completely unmodified'; the C-terminal tail (amphipathic helix) was verified by ESMS to be intact after purification; It says 'completely unmodified' with intact C-terminal tails; also called TmFtsA; source: purified as described previously (Szwedziak et al., 2012)
B2: Thermotoga maritima FtsZ (natural protein, UniProt O08398 1-351, looked up)
chain: MGFDLDVEKKKENRNIPQANNLKIKVIGVGGAGNNAINRMIEIGIHGVEFVAVNTDLQVLEASNADVKIQIGENITRGLGAGGRPEIGEQAALESEEKIREVLQDTHMVFITAGFGGGTGTGASPVIAKIAKEMGILTVAIVTTPFYFEGPERLKKAIEGLKKLRKHVDTLIKISNNKLMEELPRDVKIKDAFLKADETLHQGVKGISELITKRGYINLDFADIESVMKDAGAAILGIGVGKGEHRAREAAKKAMESKLIEHPVENASSIVFNITAPSNIRMEEVHEAAMIIRQNSSEDADVKFGLIFDDEVPDDEIRVIFIATRFPDEDKILFPEGDIPAIYRYGLEGLL
notes: FtsZ of Thermotoga maritima; 'completely unmodified'; the C-terminal tail was verified by ESMS to be intact after purification; It says 'completely unmodified' with intact C-terminal tails; also called TmFtsZ; source: purified as described previously (Szwedziak et al., 2012)

Series [1] deals with the molecule itself. Nature of the series: electron cryomicroscopy and cryotomography of liposomes; TmFtsZ (30 uM) and TmFtsA (10 uM) encapsulated in liposomes of E. coli total lipid extract by dilution of CHAPS; 0.5 mM MgGTP, MgGMPCPP or no nucleotide; TEN100 7.5 buffer; room temperature.
The series “Thermotoga maritima FtsA” deals with B1. Nature of the series: transmission electron cryomicroscopy of liposomes; proteins on the outside of liposomes of E. coli total lipid extract; TmFtsA 20 uM, TmFtsZ 60 uM or both; 50 mM Tris/HCl, 100 mM NaCl, 1 mM EDTA, 1 mM NaN3, pH 7.5; room temperature. To be noted: both partners purified.

With B1, in series [1], the binding result is given as “binds”. As for B2, the binding result (with Thermotoga maritima FtsA; in series [1]) was “binds” in each case.
